{
  "source": "patent US20080213277A1",
  "key": {"[1]": {"biological_target": "C1-C8, C3-C6 hepcidin variant (human)", "test": "BIAcore: 1 nM antibody preincubated with 10 nM of this hepcidin form in solution, then run over immobilized rhHepc surface; % = free antibody still binding the surface (low % = strong binding to the solution form)"}, "[2]": {"biological_target": "linear hepcidin variant (human)", "test": "BIAcore: 1 nM antibody preincubated with 10 nM of this hepcidin form in solution, then run over immobilized rhHepc surface; % = free antibody still binding the surface (low % = strong binding to the solution form)"}},
  "data": [
    {"binder": "murine anti-human hepcidin monoclonal antibody 2.41 (antibody, V domains shown) VH: QIQLVQSGPELKKPGETVKISCKASGYTFTTYGMSWVKQAPGKGLKWMGWINTSSGVPTYADDFMGRFAFSLETSASTAYLQINNLKNEDTATYFCARDRYYGEVAYWGQGTLVTVSA VL: DIVLTQSPASLAVSLGQRATISCRASESVDSFGNSFMHWYQLKPGQPPKLLIYRASNLESGIPARFSGSGSRTDFTLTINPVEADDVAIYYCQQSNEEYTFGGGTKLEIK", "values": [
      {"measurement": "Binding to Hepcidin Surface (%)", "setting": "[1]", "result": 1, "unit": "%"},
      {"measurement": "Binding to Hepcidin Surface (%)", "setting": "[2]", "result": 99, "unit": "%"}
    ]},
    {"binder": "rat anti-human hepcidin monoclonal antibody R9 (antibody, V domains shown) VH: QVTLKESGPGILQPSQTLSLTCSFSGFSLSTSGICVSWIRQPSGKGLEWLATICWEDSKGYNPSLKNRLTISKDTSNNQAFLKITSVDTADTAIYYCARPLNYGGYSELELDYWGQGVMVTVSS VL: DIQMTQSPSLLSASVGDRVTLSCKASQNIYKYLNWYQQKLGEAPKLLIYYTNSLQTGIPSRFSGSGSGTDFTLTISSLQPEDVATYYCYQYNSGPTFGAGTKLELK", "values": [
      {"measurement": "Binding to Hepcidin Surface (%)", "setting": "[1]", "result": 63, "unit": "%"},
      {"measurement": "Binding to Hepcidin Surface (%)", "setting": "[2]", "result": 100, "unit": "%"}
    ]},
    {"binder": "murine anti-human hepcidin monoclonal antibody Ab43 (antibody, V domains shown) VH: QIQLVQSGPELKKPGETVKISCKASGYTFTTYGMSWVKQAPGKGLKWMGWINTYSGVPTYADDFKGRFAFSLETSASTAYLQINNLKNEDTATYFCASLWYYGRAFDYWGQGTTLTVSS VL: NIVLTQSPASLAVSLGQRATISCRASESVDSYGNSFMHWYQQKPGQPPKLLIYLASNLESGVPARFSGSGSRTDFTLTIDPVEADDAATYYCQQNNEDRTFGGGTKLEIK", "values": [
      {"measurement": "Binding to Hepcidin Surface (%)", "setting": "[1]", "result": 25, "unit": "%"},
      {"measurement": "Binding to Hepcidin Surface (%)", "setting": "[2]", "result": 100, "unit": "%"}
    ]},
    {"binder": "murine anti-human hepcidin monoclonal antibody 2.7 (antibody, V domains shown) VH: QIQLVQSGPELKKPGETVKISCKASGYTFTTYGMSWVKQAPGKGLKWMGWINTYSGVPTYADDFKGRFAFSLETSASTAYLQINNLKNEDTATYFCGRDHYYGEVAYWGQGTLVTVSA VL: DIVLTQSPASLAVSLGQRATISCRASESVDSYGNSFMHWYQQKPGQPPKLLIYRASNLESGIPARFSGSGSRTDFTLTINPVEADDVATYYCHQSNEEYTFGGGTKLEIK", "values": [
      {"measurement": "Binding to Hepcidin Surface (%)", "setting": "[1]", "result": 3, "unit": "%"},
      {"measurement": "Binding to Hepcidin Surface (%)", "setting": "[2]", "result": 100, "unit": "%"}
    ]}
  ]
}
